Experimental data published in patent US20250340623A1.

Biological target: human full-length alpha-synuclein (human) (UniProt P37840)
Experiment: indirect ELISA on coated full-length alpha-synuclein, O.D. 405 nm

Question: Syn1 (antibody) was tested. Which EC50 (read off the curve) did it give?
Answer: 6 ng/mL
